Laboratory results reported in IntAct's records for PubMed 29039417.

B1: BBSome complex member BBS1 (Homo sapiens), Q8NFJ9 (parent)
chain: MAAASSSDSDACGAESNEANSKWLDAHYDPMANIHTFSACLALADLHGDGEYKLVVGDLGPGGQQPRLKVLKGPLVMTESPLPALPAAAATFLMEQHEPRTPALALASGPCVYVYKNLRPYFKFSLPQLPPNPLEQDLWNQAKEDRIDPLTLKEMLESIRETAEEPLSIQSLRFLQLELSEMEAFVNQHKSNSIKRQTVITTMTTLKKNLADEDAVSCLVLGTENKELLVLDPEAFTILAKMSLPSVPVFLEVSGQFDVEFRLAAACRNGNIYILRRDSKHPKYCIELSAQPVGLIRVHKVLVVGSTQDSLHGFTHKGKKLWTVQMPAAILTMNLLEQHSRGLQAVMAGLANGEVRIYRDKALLNVIHTPDAVTSLCFGRYGREDNTLIMTTRGGGLIIKILKRTAVFVEGGSEVGPPPAQAMKLNVPRKTRLYVDQTLREREAGTAMHRAFQTDLYLLRLRAARAYLQALESSLSPLSTTAREPLKLHAVVQGLGPTFKLTLHLQNTSTTRPVLGLLVCFLYNEALYSLPRAFFKVPLLVPGLNYPLETFVESLSNKGISDIIKVLVLREGQSAPLLSAHVNMPGSEGLAAA
partner: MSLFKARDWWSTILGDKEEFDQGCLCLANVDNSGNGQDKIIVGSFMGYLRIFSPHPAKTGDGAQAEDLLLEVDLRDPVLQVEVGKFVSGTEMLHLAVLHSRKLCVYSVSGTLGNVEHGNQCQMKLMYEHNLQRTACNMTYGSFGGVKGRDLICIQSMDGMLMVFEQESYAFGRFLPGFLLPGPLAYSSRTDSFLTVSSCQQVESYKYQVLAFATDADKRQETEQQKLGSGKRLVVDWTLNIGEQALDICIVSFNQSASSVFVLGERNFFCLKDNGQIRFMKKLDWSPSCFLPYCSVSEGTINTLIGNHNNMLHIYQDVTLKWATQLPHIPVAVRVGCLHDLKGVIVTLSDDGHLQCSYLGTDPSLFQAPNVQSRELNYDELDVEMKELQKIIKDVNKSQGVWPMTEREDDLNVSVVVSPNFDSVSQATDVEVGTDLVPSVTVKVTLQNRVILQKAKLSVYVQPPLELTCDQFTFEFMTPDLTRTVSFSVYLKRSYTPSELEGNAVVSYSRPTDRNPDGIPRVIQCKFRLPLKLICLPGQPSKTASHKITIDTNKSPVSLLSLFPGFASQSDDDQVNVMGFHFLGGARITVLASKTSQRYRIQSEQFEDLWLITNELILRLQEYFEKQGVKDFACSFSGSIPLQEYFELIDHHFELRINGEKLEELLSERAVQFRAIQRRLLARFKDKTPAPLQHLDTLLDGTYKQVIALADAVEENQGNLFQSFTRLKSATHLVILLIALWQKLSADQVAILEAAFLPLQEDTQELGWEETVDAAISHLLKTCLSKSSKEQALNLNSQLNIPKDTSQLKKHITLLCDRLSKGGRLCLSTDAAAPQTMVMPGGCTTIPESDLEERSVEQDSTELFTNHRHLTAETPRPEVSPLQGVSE

Variants of: B1
Conditions: with pthb1_human BBS9, Q3SYG4

Effect of a mutation on the interaction, with no effect:
MAAASSSDSDACGAESNEANSKWLDAHYDPMANIHTFSACLALADLHGDGEYKLVVGDLGPGGQQPRLKVLKGPLVMTESPLPALPAAAATFLMEQHEPRTPALALASGPCVYVYKNLRPYFKFSLPQLPPNPLEQDLWNQAKEDRIDPLTLKEMLESIRETAEEPLSIQSLRFLQLELSEMEAFVNQHKSNSIKRQTVITTMTTLKKNLADEDAVSCLVLGTENKELLVLDPEAFTILAKMSLPSVPVFLEVSGQFDVEFRLAAACRNGNIYILRRDSKHPKYCIELSAQPVGLIRVHKVLVVGSTQDSLHGFTHKGKKLWTVQMPAAILTMNLLEQHSRGLQAVMAGLANGEVRIYRDKALLNVIHTPDAVTSLCFGRYGREDNTLIMTTRGGGLIIKILKRTAVFVEGGSEVGPPPAQAMKLNVPRKTRLYVDQTLREREAGTAMHRAFQTDLYLLRLRAARAYLQALESSLSPLSTTAREPLKLHAVVQGLGPTFKLTLHLQNTSTTRPVLGLLVCFLYNEALYSLPRAFFKVPLLVPGLNYPLETFVESLSNKGISDIIKVLVLREGQSAPLLKAHVNMPGSEGLAAA [S579K]
MAAASSSDSDACGAESNEANSKWLDAHYDPMANIHTFSACLALADLHGDGEYKLVVGDLGPGGQQPRLKVLKGPLVMTESPLPALPAAAATFLMEQHEPRTPALALASGPCVYVYKNLRPYFKFSLPQLPPNPLEQDLWNQAKEDRIDPLTLKEMLESIRETAEEPLSIQSLRFLQLELSEMEAFVNQHKSNSIKRQTVITTMTTLKKNLADEDAVSCLVLGTENKELLVLDPEAFTILAKMSLPSVPVFLEVSGQFDVEFRLAAACRNGNIYILRRDSKHPKYCIELSAQPVGLIRVHKVLVVGSTQDSLHGFTHKGKKLWTVQMPAAILTMNLLEQHSRGLQAVMAGLANGEVRIYRDKALLNVIHTPDAVTSLCFGRYGREDNTLIMTTRGGGLIIKILKRTAVFVEGGSEVGPPPAQAMKLNVPRKTRLYVDQTLREREAGTAMHRAFQTDLYLLRLRAARAYLQALESSLSPLSTTAREPLKLHAVVQGLGPTFKLTLHLQNTSTTRPVLGLLVCFLYNEALYSLPRAFFKVPLLVPGLNYPLETFVESLSNKGISDIIKVLVLREGQSAPLLEAHVNMPGSEGLAAA [S579E]
MAAASSSDSDACGAESNEANSKWLDAHYDPMANIHTFSACLALADLHGDGEYKLVVGDLGPGGQQPRLKVLKGPLVMTESPLPALPAAAATFLMEQHEPRTPALALASGPCVYVYKNLRPYFKFSLPQLPPNPLEQDLWNQAKEDRIDPLTLKEMLESIRETAEEPLSIQSLRFLQLELSEMEAFVNQHKSNSIKRQTVITTMTTLKKNLADEDAVSCLVLGTENKELLVLDPEAFTILAKMSLPSVPVFLEVSGQFDVEFRLAAACRNGNIYILRRDSKHPKYCIELSAQPVGLIRVHKVLVVGSTQDSLHGFTHKGKKLWTVQMPAAILTMNLLEQHSRGLQAVMAGLANGEVRIYRDKALLNVIHTPDAVTSLCFGRYGREDNTLIMTTRGGGLIIKILKRTAVFVEGGSEVGPPPAQAMKLNVPRKTRLYVDQTLREREAGTAMHRAFQTDLYLLRLRAARAYLQALESSLSPLSTTAREPLKLHAVVQGLGPTFKLTLHLQNTSTTRPVLGLLVCFLYNEALYSLPRAFFKVPLLVPGLNYPLETFVESLSNKGISDIIKVLVLREGQSAPLLSAHANMPGSEGLAAA [V582A]
MAAASSSDSDACGAESNEANSKWLDAHYDPMANIHTFSACLALADLHGDGEYKLVVGDLGPGGQQPRLKVLKGPLVMTESPLPALPAAAATFLMEQHEPRTPALALASGPCVYVYKNLRPYFKFSLPQLPPNPLEQDLWNQAKEDRIDPLTLKEMLESIRETAEEPLSIQSLRFLQLELSEMEAFVNQHKSNSIKRQTVITTMTTLKKNLADEDAVSCLVLGTENKELLVLDPEAFTILAKMSLPSVPVFLEVSGQFDVEFRLAAACRNGNIYILRRDSKHPKYCIELSAQPVGLIRVHKVLVVGSTQDSLHGFTHKGKKLWTVQMPAAILTMNLLEQHSRGLQAVMAGLANGEVRIYRDKALLNVIHTPDAVTSLCFGRYGREDNTLIMTTRGGGLIIKILKRTAVFVEGGSEVGPPPAQAMKLNVPRKTRLYVDQTLREREAGTAMHRAFQTDLYLLRLRAARAYLQALESSLSPLSTTAREPLKLHAVVQGLGPTFKLTLHLQNTSTTRPVLGLLVCFLYNEALYSLPRAFFKVPLLVPGLNYPLETFVESLSNKGISDIIKVLVLREGQSAPLLSAHENMPGSEGLAAA [V582E]
MAAASSSDSDACGAESNEANSKWLDAHYDPMANIHTFSACLALADLHGDGEYKLVVGDLGPGGQQPRLKVLKGPLVMTESPLPALPAAAATFLMEQHEPRTPALALASGPCVYVYKNLRPYFKFSLPQLPPNPLEQDLWNQAKEDRIDPLTLKEMLESIRETAEEPLSIQSLRFLQLELSEMEAFVNQHKSNSIKRQTVITTMTTLKKNLADEDAVSCLVLGTENKELLVLDPEAFTILAKMSLPSVPVFLEVSGQFDVEFRLAAACRNGNIYILRRDSKHPKYCIELSAQPVGLIRVHKVLVVGSTQDSLHGFTHKGKKLWTVQMPAAILTMNLLEQHSRGLQAVMAGLANGEVRIYRDKALLNVIHTPDAVTSLCFGRYGREDNTLIMTTRGGGLIIKILKRTAVFVEGGSEVGPPPAQAMKLNVPRKTRLYVDQTLREREAGTAMHRAFQTDLYLLRLRAARAYLQALESSLSPLSTTAREPLKLHAVVQGLGPTFKLTLHLQNTSTTRPVLGLLVCFLYNEALYSLPRAFFKVPLLVPGLNYPLETFVESLSNKGISDIIKVLVLREGQSAPLLSAHKNMPGSEGLAAA [V582K]
MAAASSSDSDACGAESNEANSKWLDAHYDPMANIHTFSACLALADLHGDGEYKLVVGDLGPGGQQPRLKVLKGPLVMTESPLPALPAAAATFLMEQHEPRTPALALASGPCVYVYKNLRPYFKFSLPQLPPNPLEQDLWNQAKEDRIDPLTLKEMLESIRETAEEPLSIQSLRFLQLELSEMEAFVNQHKSNSIKRQTVITTMTTLKKNLADEDAVSCLVLGTENKELLVLDPEAFTILAKMSLPSVPVFLEVSGQFDVEFRLAAACRNGNIYILRRDSKHPKYCIELSAQPVGLIRVHKVLVVGSTQDSLHGFTHKGKKLWTVQMPAAILTMNLLEQHSRGLQAVMAGLANGEVRIYRDKALLNVIHTPDAVTSLCFGRYGREDNTLIMTTRGGGLIIKILKRTAVFVEGGSEVGPPPAQAMKLNVPRKTRLYVDQTLREREAGTAMHRAFQTDLYLLRLRAARAYLQALESSLSPLSTTAREPLKLHAVVQGLGPTFKLTLHLQNTSTTRPVLGLLVCFLYNEALYSLPRAFFKVPLLVPGLNYPLETFVESLSNKGISDIIKVLVLREGQSAPLLSKHVNMPGSEGLAAA [A580K]
MAAASSSDSDACGAESNEANSKWLDAHYDPMANIHTFSACLALADLHGDGEYKLVVGDLGPGGQQPRLKVLKGPLVMTESPLPALPAAAATFLMEQHEPRTPALALASGPCVYVYKNLRPYFKFSLPQLPPNPLEQDLWNQAKEDRIDPLTLKEMLESIRETAEEPLSIQSLRFLQLELSEMEAFVNQHKSNSIKRQTVITTMTTLKKNLADEDAVSCLVLGTENKELLVLDPEAFTILAKMSLPSVPVFLEVSGQFDVEFRLAAACRNGNIYILRRDSKHPKYCIELSAQPVGLIRVHKVLVVGSTQDSLHGFTHKGKKLWTVQMPAAILTMNLLEQHSRGLQAVMAGLANGEVRIYRDKALLNVIHTPDAVTSLCFGRYGREDNTLIMTTRGGGLIIKILKRTAVFVEGGSEVGPPPAQAMKLNVPRKTRLYVDQTLREREAGTAMHRAFQTDLYLLRLRAARAYLQALESSLSPLSTTAREPLKLHAVVQGLGPTFKLTLHLQNTSTTRPVLGLLVCFLYNEALYSLPRAFFKVPLLVPGLNYPLETFVESLSNKGISDIIKVLVLREGQSAPLLSEHVNMPGSEGLAAA [A580E]
MAAASSSDSDACGAESNEANSKWLDAHYDPMANIHTFSACLALADLHGDGEYKLVVGDLGPGGQQPRLKVLKGPLVMTESPLPALPAAAATFLMEQHEPRTPALALASGPCVYVYKNLRPYFKFSLPQLPPNPLEQDLWNQAKEDRIDPLTLKEMLESIRETAEEPLSIQSLRFLQLELSEMEAFVNQHKSNSIKRQTVITTMTTLKKNLADEDAVSCLVLGTENKELLVLDPEAFTILAKMSLPSVPVFLEVSGQFDVEFRLAAACRNGNIYILRRDSKHPKYCIELSAQPVGLIRVHKVLVVGSTQDSLHGFTHKGKKLWTVQMPAAILTMNLLEQHSRGLQAVMAGLANGEVRIYRDKALLNVIHTPDAVTSLCFGRYGREDNTLIMTTRGGGLIIKILKRTAVFVEGGSEVGPPPAQAMKLNVPRKTRLYVDQTLREREAGTAMHRAFQTDLYLLRLRAARAYLQALESSLSPLSTTAREPLKLHAVVQGLGPTFKLTLHLQNTSTTRPVLGLLVCFLYNEALYSLPRAFFKVPLLVPGLNYPLETFVESLSNKGISDIIKVLVLREGQSAPLLSAKVNMPGSEGLAAA [H581K]
MAAASSSDSDACGAESNEANSKWLDAHYDPMANIHTFSACLALADLHGDGEYKLVVGDLGPGGQQPRLKVLKGPLVMTESPLPALPAAAATFLMEQHEPRTPALALASGPCVYVYKNLRPYFKFSLPQLPPNPLEQDLWNQAKEDRIDPLTLKEMLESIRETAEEPLSIQSLRFLQLELSEMEAFVNQHKSNSIKRQTVITTMTTLKKNLADEDAVSCLVLGTENKELLVLDPEAFTILAKMSLPSVPVFLEVSGQFDVEFRLAAACRNGNIYILRRDSKHPKYCIELSAQPVGLIRVHKVLVVGSTQDSLHGFTHKGKKLWTVQMPAAILTMNLLEQHSRGLQAVMAGLANGEVRIYRDKALLNVIHTPDAVTSLCFGRYGREDNTLIMTTRGGGLIIKILKRTAVFVEGGSEVGPPPAQAMKLNVPRKTRLYVDQTLREREAGTAMHRAFQTDLYLLRLRAARAYLQALESSLSPLSTTAREPLKLHAVVQGLGPTFKLTLHLQNTSTTRPVLGLLVCFLYNEALYSLPRAFFKVPLLVPGLNYPLETFVESLSNKGISDIIKVLVLREGQSAPLLSAAVNMPGSEGLAAA [H581A]
MAAASSSDSDACGAESNEANSKWLDAHYDPMANIHTFSACLALADLHGDGEYKLVVGDLGPGGQQPRLKVLKGPLVMTESPLPALPAAAATFLMEQHEPRTPALALASGPCVYVYKNLRPYFKFSLPQLPPNPLEQDLWNQAKEDRIDPLTLKEMLESIRETAEEPLSIQSLRFLQLELSEMEAFVNQHKSNSIKRQTVITTMTTLKKNLADEDAVSCLVLGTENKELLVLDPEAFTILAKMSLPSVPVFLEVSGQFDVEFRLAAACRNGNIYILRRDSKHPKYCIELSAQPVGLIRVHKVLVVGSTQDSLHGFTHKGKKLWTVQMPAAILTMNLLEQHSRGLQAVMAGLANGEVRIYRDKALLNVIHTPDAVTSLCFGRYGREDNTLIMTTRGGGLIIKILKRTAVFVEGGSEVGPPPAQAMKLNVPRKTRLYVDQTLREREAGTAMHRAFQTDLYLLRLRAARAYLQALESSLSPLSTTAREPLKLHAVVQGLGPTFKLTLHLQNTSTTRPVLGLLVCFLYNEALYSLPRAFFKVPLLVPGLNYPLETFVESLSNKGISDIIKVLVLREGQSAPLLSAEVNMPGSEGLAAA [H581E]
